Data from patent publication US20160223554A1, “METHODS FOR DIAGNOSIS, PROGNOSIS AND METHODS OF TREATMENT” (priority 2011, published 2016).

How the values were obtained:
AML blasts = assay: SCNP phospho-flow signaling nodes in AML PBMC (Example 2, Study No. 1); assay type: cell-based, human; settings: for Mean Value of CRs: CR patients; for Mean Value of CRs / Mean Value of NRs: Study No. 1; for Mean Value of NRs: NR patients
Experimental: Frozen cells are thawed in a 37° C. water bath and gently resuspended in the vial and transferred to the 15 mL conical tube. The 15 mL tube is centrifuged at 930 RPM (200×g) for 8 minutes at room temperature. The supernatant is aspirated and the pellet is gently resuspended in 1 mL media A. The cell suspension is filtered through a 70 um cell strainer into a new 15 mL tube. The cell strainer is rinsed with 1 mL media A and another 12 ml of media A into the 15 mL tube. The cells are mixed into an even suspension. A 20 μL aliquot is immediately removed into a 96-well plate containing 180 μL PBS+4% FBS+CD45 Alexa 700+PI to determine cell count and viability post spin. After the determination, the 15 mL tubes are centrifuged at 930 RPM (200×g) for 8 minutes at room temperature. The supernatant is aspirated and the cell pellet is gently resuspended in 4 mL PBS+4 μL Amine Aqua and incubated for 15 min in a 37° C. incubator. 10 mL RPMI+1% FBS is added to the cell suspension and the tube is inverted to mix the cells. The 15 mL tubes are centrifuged at 930 RPM (200×g) for 8 minutes at room temperature. The cells are resuspended in Media A at the desired cell concentration (1.25×10^6/mL). For samples with low numbers of cells (<18.5×10^6), the cells are resuspended in up to 15 mL media. For samples with high numbers of cells (>18.5×10^6), the volume is raised to 10 mL with media A and the desired volume is transferred to a new 15 mL tube, and the cell concentration is adjusted to 1.25×10^6 cells/ml. 1.6 mL of the above cell suspension (concentration at 1.25×10^6 cells/ml) is transferred into wells of a multi-well plate. From this plate, 80 ul is dispensed into each well of a subsequent plate. The plates are covered with a lid (Nunc) and placed in a 37° C. incubator for 2 hours to rest.
A concentration for each stimulant that is five folds more (5×) than the final concentration is prepared using Media A as diluent. 5× stimuli are arrayed into wells of a standard 96 well v-bottom plate that correspond to the wells on the plate with cells to be stimulated.
Adding the stimulant: The cell plate(s) are taken out of the incubator and placed in a 37° C. water bath next to the pipette apparatus. The cell plate is taken from the water bath and gently swirled to resuspend any settled cells. With pipettor, the stimulant is dispensed into the cell plate and vortexed at “7” for 5 seconds. The deep well plate is put back into the water bath.
The plate is covered with foil sealer and incubated in a 37° C. water bath for 10 minutes. The plate is spun for 6 minutes at 2000 rpm at room temperature. The cells are aspirated using a 96 well plate aspirator (VP Scientific). The plate is vortexed to resuspend cell pellets in the residual volume. The pellet is ensured to be dispersed before the Methanol step (see cell permeabilization) or clumping will occur.
Cell Permeabilization: Permeability agent, for example methanol, is added slowly and while the plate is vortexing. To do this, the cell plate is placed on titer plate shaker and made sure it is secure. The plate is set to shake using the highest setting. A pipetter is used to add 0.6 mls of 100% methanol to the plate wells. The plate(s) are put on ice until this step has been completed for all plates. Plates are covered with a foil seal using the plate roller to achieve a tight fit. At this stage the plates can be stored at −80° C.
Cells are thawed if frozen. Cells are pelleted at 2000 rpm 5 minutes. Supernatant is aspirated with vacuum aspirator. Plate is vortexed on a “plate vortex” for 5-10 seconds. Cells are washed with 1 mL FACS buffer. Repeat the spin, aspirate and vortex steps as above. 50 μL of FACS/stain buffer with the desired, previously optimized, antibody cocktail is added to two rows of cells at a time and agitate the plate. The plate is covered and incubated in a shaker for 30 minutes at room temperature (RT). During this incubation, the compensation plate is prepared.

[1] = tested on: elderly pts with untreated AML; settings: cited from earlier work
[2] = Fold = log2(MFI modulated) - log2(MFI unmodulated), 9 CRs, Study No.1
[3] = Fold = log2(MFI modulated) - log2(MFI unmodulated), 25 NRs, Study No.1
[4] = Fold metric, Study No. 1, CRp patient included in NR group
[5] = Total Phospho metric, Study No. 1, CRp patient included in NR group
[6] = read-out p-CREB, metric TotalPhospho
[7] = read-out p-Erk, metric TotalPhospho
[8] = read-out p-Plcγ2, metric TotalPhospho
[9] = read-out p-Stat3, metric TotalPhospho
[10] = read-out p-Stat1, metric TotalPhospho

| Molecule | p-Akt Fold, Mean Value of CRs (AML blasts; [2]) | p-Akt Fold, Mean Value of NRs (AML blasts; [3]) | Mean Value of CRs, p-Akt (AML blasts; [4]) | Mean Value of CRs, p-Erk (AML blasts; [4]) | Mean Value of NRs, p-Akt (AML blasts; [4]) | Mean Value of NRs, p-Erk (AML blasts; [4]) | Mean Value of CRs, p-CREB (AML blasts; [5]) | Mean Value of CRs, p-Plcγ2 (AML blasts; [5]) | Mean Value of NRs, p-CREB (AML blasts; [5]) | Mean Value of NRs, p-Plcγ2 (AML blasts; [5]) | Mean Value of CRs (AML blasts; read-out p-Akt, metric Fold) | Mean Value of NRs (AML blasts; read-out p-Akt, metric Fold) | Mean Value of CRs (AML blasts; [6]) | Mean Value of NRs (AML blasts; [6]) | Mean Value of CRs (AML blasts; [8]) | Mean Value of NRs (AML blasts; [8]) | Mean Value of CRs, p-Stat3 (AML blasts; [5]) | Mean Value of NRs, p-Stat3 (AML blasts; [5]) | Mean Value of CRs (AML blasts; [9]) | Mean Value of NRs (AML blasts; [9]) | further results |
| --- | --- | --- | --- | --- | --- | --- | --- | --- | --- | --- | --- | --- | --- | --- | --- | --- | --- | --- | --- | --- | --- |
| SCF: stem cell factor, ligand of c-Kit | 0.12 | 0.57 | 0.09 | −0.06 | 0.56 | 0.11 | 1.32 | 1.80 | 1.92 | 2.79 | 0.12 | 0.57 | 1.38 | 1.92 | 1.87 | 2.81 |  |  |  |  | Mean Value of CRs (AML blasts; read-out p-Erk, metric Fold): −0.05; Mean Value of NRs (AML blasts; read-out p-Erk, metric Fold): 0.11; Mean Value of CRs (AML blasts; [7]): 1.87; Mean Value of NRs (AML blasts; [7]): 2.28 |
| G-CSF: granulocyte colony-stimulating factor (protein, UniProt P09919 31-207, looked up) Granulocyte …: TPLGPASSLPQSFLLKCLEQVRKIQGDGAALQEKLVSECATYKLCHPEELVLLGHSLGIPWAPLSSCPSQALQLAGCLSQLHSGLFLYQGLLQALEGISPELGPTLDTLQLDVADFATTIWQQMEELGMAPALQPTQGAMPAFASAFQRRAGGVLVASHLQSFLEVSYRVLRHLAQP |  |  |  |  |  |  |  |  |  |  |  |  |  |  |  |  | 1.40 | 2.74 | 1.66 | 2.70 | p-Stat5 Fold, Mean Value of CRs (AML blasts; [2]): 0.47; p-Stat5 Fold, Mean Value of NRs (AML blasts; [3]): 1.13; Mean Value of CRs, p-Stat3 (AML blasts; [4]): 0.60; Mean Value of CRs, p-Stat5 (AML blasts; [4]): 0.33; Mean Value of NRs, p-Stat3 (AML blasts; [4]): 1.52; Mean Value of NRs, p-Stat5 (AML blasts; [4]): 1.15; Mean Value of CRs (AML blasts; read-out p-Stat5, metric Fold): 0.47; Mean Value of NRs (AML blasts; read-out p-Stat5, metric Fold): 1.13; Med RFS ([1]; SWOG-9031, by arm (NS)): 9 mo; G-CSF: 8; CR Rates ([1]; SWOG-9031, by arm, added to Ara-C/DNR induction, p = 0.89): G-CSF: 41%; Med. OS ([1]; SWOG-9031, by arm, p = .71): G-CSF: 6 mos. |
| IL-27: interleukin-27, cytokine modulator (protein, UniProt Q8NEV9 29-243; Q14213 21-229, looked up) Interleukin-27 subunit alpha: FPRPPGRPQLSLQELRREFTVSLHLARKLLSEVRGQAHRFAESHLPGVNLYLLPLGEQLPDVSLTFQAWRRLSDPERLCFISTTLQPFHALLGGLGTQGRWTNMERMQLWAMRLDLRDLQRHLRFQVLAAGFNLPEEEEEEEEEEEEERKGLLPGALGSALQGPAQVSWPQLLSTYRLLHSLELVLSRAVRELLLLSKAGHSVWPLGFPTLSPQP Interleukin-27 subunit beta: RKGPPAALTLPRVQCRASRYPIAVDCSWTLPPAPNSTSPVSFIATYRLGMAARGHSWPCLQQTPTSTSCTITDVQLFSMAPYVLNVTAVHPWGSSSSFVPFITEHIIKPDPPEGVRLSPLAERQLQVQWEPPGSWPFPEIFSLKYWIRYKRQGAARFHRVGPIEATSFILRAVRPRARYYVQVAAQDLTDYGELSDWSLPATATMSLGK |  |  |  |  |  |  | 1.25 |  | 2.36 |  |  |  | 1.40 | 2.35 |  |  | 1.01 | 1.85 | 1.07 | 1.86 | Mean Value of CRs, p-Stat1 (AML blasts; [5]): 0.39; Mean Value of NRs, p-Stat1 (AML blasts; [5]): 0.81; Mean Value of CRs (AML blasts; [10]): 0.41; Mean Value of NRs (AML blasts; [10]): 0.82 |
| FLT3L: fms-like tyrosine kinase receptor-3 ligand (protein, UniProt P49771 27-235, looked up) Fms-related tyrosine kinase 3 …: TQDCSFQHSPISSDFAVKIRELSDYLLQDYPVTVASNLQDEELCGGLWRLVLAQRWMERLKTVAGSKMQGLLERVNTEIHFVTKCAFQPPPSCLRFVQTNISRLLQETSEQLVALKPWITRQNFSRCLELQCQPDSSTLPPPWSPRPLEATAPTAPQPPLLLLLLLPVGLLLLAAAWCLHWQRTRRRTPRPGEQVPPVPSPQDLLLVEH | 0.18 | 0.64 | 0.10 | 0.08 | 0.65 | 0.33 | 1.39 | 1.81 | 2.13 | 2.78 | 0.18 | 0.64 | 1.50 | 2.12 | 1.88 | 2.80 |  |  |  |  | p-S6 Fold, Mean Value of CRs (AML blasts; [2]): 0.28; p-S6 Fold, Mean Value of NRs (AML blasts; [3]): 0.81; Mean Value of CRs, p-CREB (AML blasts; [4]): 0.07; Mean Value of CRs, p-Plcγ2 (AML blasts; [4]): −0.14; Mean Value of CRs, p-S6 (AML blasts; [4]): 0.14; Mean Value of NRs, p-CREB (AML blasts; [4]): 0.36; Mean Value of NRs, p-Plcγ2 (AML blasts; [4]): −0.08; Mean Value of NRs, p-S6 (AML blasts; [4]): 0.83; Mean Value of CRs (AML blasts; read-out p-S6, metric Fold): 0.28; Mean Value of NRs (AML blasts; read-out p-S6, metric Fold): 0.81 |
